Measurements published in IntAct's records for PubMed 19632993.

B1: Chromosomal replication initiator protein DnaA (Escherichia coli (strain K12)), P03004 (parent)
chain: MSLSLWQQCLARLQDELPATEFSMWIRPLQAELSDNTLALYAPNRFVLDWVRDKYLNNINGLLTSFCGADAPQLRFEVGTKPVTQTPQAAVTSNVAAPAQVAQTQPQRAAPSTRSGWDNVPAPAEPTYRSNVNVKHTFDNFVEGKSNQLARAAARQVADNPGGAYNPLFLYGGTGLGKTHLLHAVGNGIMARKPNAKVVYMHSERFVQDMVKALQNNAIEEFKRYYRSVDALLIDDIQFFANKERSQEEFFHTFNALLEGNQQIILTSDRYPKEINGVEDRLKSRFGWGLTVAIEPPELETRVAILMKKADENDIRLPGEVAFFIAKRLRSNVRELEGALNRVIANANFTGRAITIDFVREALRDLLALQEKLVTIDNIQKTVAEYYKIKVADLLSKRRSRSVARPRQMAMALAKELTNHSLPEIGDAFGGRDHTTVLHACRKIEQLREESHDIKEDFSNLIRTLSS
partner: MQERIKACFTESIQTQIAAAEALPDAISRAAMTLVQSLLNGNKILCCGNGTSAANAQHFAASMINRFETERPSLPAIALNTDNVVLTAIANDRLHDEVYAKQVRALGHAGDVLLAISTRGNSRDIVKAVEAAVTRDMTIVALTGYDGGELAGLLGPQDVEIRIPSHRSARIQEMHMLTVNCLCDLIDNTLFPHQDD

Variants of: B1
Conditions: with diaa_ecoli diaA

Variant | effect of a mutation on the interaction
E21A | decreasing interaction
F46A | disrupting interaction
